Data: publication PMC2737543, “The crystal structure of Haloferax volcanii proliferating cell nuclear antigen reveals unique surface charge characteristics due to halophilic adaptation” (BMC Structural Biology, 2009)

Molecular target: the molecule itself
Experiment: SEC; 10/300 Superdex 200, 50 mM HEPES pH 7.0, KCl 0.2 to 3.0 M (and equivalent NaCl); protein incubated 4 hours in the buffer before loading; 0.5 ml/min; calibrated with molecular weight standards

B1: Haloferax volcanii proliferating cell nuclear antigen (natural protein)
chain: MFKAIVSAATLRDALDSVSVLVDECKIRLNEESLSIRAVDPANVGMVDLTLDAAAFESYEAHGGVIGVNLSRLEEVAGMAGAGDLIHLTLDEETRKLNIRIDGLSYTLALIDPDSIRQEPDIPDLDLAANIVLEGTHLDRGIKAADMVSDHIRLRVDGAEETFHIEAEGDTDDVDLSLPPADLISIEAGAADSLFSLDYLKDMNKAIPTDAEVTVELGEEFPVKLHYQIAEGMGTITYMLAPRIQSD
notes: Homotrimer; No tag is mentioned; In the model the N-terminal methionine is missing and the C-terminus is not modelled from residue 244; also called HvPCNA; H. volcanii PCNA; source: E. coli B834 (DE3), purified (ammonium sulphate precipitation, Superdex 200, Q-sepharose FF)
With B1 the “stoichiometry N” value was 3.
